The results in this text go back to PMC3903133, “Single-molecule analysis reveals self assembly and nanoscale segregation of two distinct cavin subcomplexes on caveolae” (eLife, 2014).

B1: cavin2-GFP (natural protein, UniProt O95810 1-425, looked up)
chain: MGEDAAQAEKFQHPGSDMRQEKPSSPSPMPSSTPSPSLNLGNTEEAIRDNSQVNAVTVLTLLDKLVNMLDAVQENQHKMEQRQISLEGSVKGIQNDLTKLSKYQASTSNTVSKLLEKSRKVSAHTRAVKERMDRQCAQVKRLENNHAQLLRRNHFKVLIFQEENEIPASVFVKQPVSGAVEGKEELPDENKSLEETLHTVDLSSDDDLPHDEEALEDSAEEKVEESRAEKIKRSSLKKVDSLKKAFSRQNIEKKMNKLGTKIVSVERREKIKKSLTSNHQKISSGKSSPFKVSPLTFGRKKVREGESHAENETKSEDLPSSEQMPNDQEEESFAEGHSEASLASALVEGEIAEEAAEKATSRGSNSGMDSNIDLTIVEDEEEESVALEQAQKVRYEGSYALTSEEAERSDGDPVQPAVLQVHQTS
notes: cavin2 / SDPR (serum deprivation response protein); construct cloned as described in Hill et al. (2008); The only hint on species is the keyword 'human'; the cDNA may be of mouse (surmise); also called SDPR; serum deprivation response protein; source: MCF-7 or MDCK cells, transfected (Lipofectamine 2000), in supernatant of mechanically lysed cells
B4: cavin1-GFP (natural protein, UniProt Q6NZI2 1-390, looked up)
chain: MEDPTLYIVERPLPGYPDAEAPEPSSAGAQAAEEPSGAGSEELIKSDQVNGVLVLSLLDKIIGAVDQIQLTQAQLEERQAEMEGAVQSIQGELSKLGKAHATTSNTVSKLLEKVRKVSVNVKTVRGSLERQAGQIKKLEVNEAELLRRRNFKVMIYQDEVKLPAKLSISKSLKESEALPEKEGEELGEGERPEEDAAALELSSDEAVEVEEVIEESRAERIKRSGLRRVDDFKKAFSKEKMEKTKVRTRENLEKTRLKTKENLEKTRHTLEKRMNKLGTRLVPAERREKLKTSRDKLRKSFTPDHVVYARSKTAVYKVPPFTFHVKKIREGQVEVLKATEMVEVGADDDEGGAERGEAGDLRRGSSPDVHALLEITEESDAVLVDKSDSD
notes: cavin1 / polymerase transcript release factor (PTRF); construct cloned as described in Hill et al. (2008); The only hint on species is the keyword 'human'; the cDNA may be of mouse (surmise); also called polymerase transcript release factor; PTRF; source: MCF-7 or MDCK cells, transfected (Lipofectamine 2000), in supernatant of mechanically lysed cells

Data set [1] concerns the molecule itself. Description: single-molecule brightness analysis; burst brightness of fluorescent cavins in supernatant of MCF-7 cells without CAV1, calibrated on monomeric GFP (maximum 100 photons).
Another data set deals with T1, cavin1-GFP (cell-free) (UniProt Q6NZI2 1-390).
T1 construct: cavin1 / polymerase transcript release factor (PTRF); ORF in a Gateway DNA template for cell-free expression; also called PTRF; source: Leishmania tarentolae cell-free system (LTE), in vitro translated, not purified; not shown: eGFP, N-terminal, kept
T1 sequence (looked up): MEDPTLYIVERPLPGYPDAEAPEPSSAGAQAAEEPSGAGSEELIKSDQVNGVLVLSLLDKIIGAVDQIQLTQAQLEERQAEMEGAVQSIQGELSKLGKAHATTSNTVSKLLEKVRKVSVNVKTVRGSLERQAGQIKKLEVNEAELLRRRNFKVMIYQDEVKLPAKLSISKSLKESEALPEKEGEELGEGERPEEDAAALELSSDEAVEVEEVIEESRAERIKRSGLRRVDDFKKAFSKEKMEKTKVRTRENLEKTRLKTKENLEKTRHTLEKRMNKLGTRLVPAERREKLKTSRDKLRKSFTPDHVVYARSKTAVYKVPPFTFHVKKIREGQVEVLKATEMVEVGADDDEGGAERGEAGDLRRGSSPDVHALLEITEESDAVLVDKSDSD
Description: single-molecule two-colour fluorescence coincidence; co-expression in the Leishmania tarentolae cell-free system at DNA ratios from 100% GFP to 100% Cherry; >1000 bursts for each ratio. The settings on record: partners not purified.

In the next data set the target is T2, CAV1 untagged (UniProt Q03135 1-178).
T2 construct: caveolin-1 (CAV1), untagged; construct cloned as described in Hill et al. (2008); also called caveolin-1; source: MCF-7 cells, transfected, in post nuclear supernatant
T2 sequence (looked up): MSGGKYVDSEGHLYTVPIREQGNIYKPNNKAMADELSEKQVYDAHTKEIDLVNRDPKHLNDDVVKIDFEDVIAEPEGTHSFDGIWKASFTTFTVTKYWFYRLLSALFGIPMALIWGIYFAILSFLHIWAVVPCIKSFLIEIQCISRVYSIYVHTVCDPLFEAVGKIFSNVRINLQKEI
Description: single-molecule brightness analysis; burst brightness in supernatant of MCF-7 cells transfected with CAV1-GFP, or with cavin1-GFP and untagged CAV1; calibrated on a single GFP. The settings on record: partners not purified.

Data set [2] concerns the molecule itself. Described as above.
The next data set addresses T3, CAV1-GFP (UniProt Q03135 1-178).
T3 construct: caveolin-1 (CAV1); construct cloned as described in Hill et al. (2008); membrane protein, seen on caveolae in the cell extract; also called caveolin-1; Caveolin-1; source: MCF-7 cells, transfected, in post nuclear supernatant
T3 sequence (looked up): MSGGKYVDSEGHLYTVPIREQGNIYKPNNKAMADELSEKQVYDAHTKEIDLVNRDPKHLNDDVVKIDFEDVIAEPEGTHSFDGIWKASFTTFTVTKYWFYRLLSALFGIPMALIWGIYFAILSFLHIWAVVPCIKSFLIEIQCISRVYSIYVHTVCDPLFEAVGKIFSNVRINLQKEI
Description: single-molecule two-colour fluorescence coincidence; MCF-7 cells expressing CAV1-GFP and cavin1-Cherry; caveolae in the post nuclear supernatant. The settings on record: partners not purified.

The target of the data set “cavin1-GFP” is B4. The data set is described as follows: single-molecule brightness analysis; burst brightness of oligomers in the cytoplasmic fraction of MDCK cells after hypo-osmotic treatment (20 min). The settings on record: partners not purified.
The target in the data set “cavin2-GFP” is B1. Description: single-molecule two-colour fluorescence coincidence; MDCK cells (endogenous cavin1 and CAV1) co-transfected; cytoplasmic fraction after hypo-osmotic treatment (DMEM 1:10 in water, 20 min, 37°C). The settings on record: partners not purified.
In the next data set the target is T4, cavin3-GFP (UniProt Q969G5 1-261).
T4 construct: construct cloned as described in Hill et al. (2008); The only hint on species is the keyword 'human'; the cDNA may be of mouse (surmise); also called SRBC; source: MCF-7, MDCK or HeLa cells, transfected (Lipofectamine 2000), in supernatant of mechanically lysed cells
T4 sequence (looked up): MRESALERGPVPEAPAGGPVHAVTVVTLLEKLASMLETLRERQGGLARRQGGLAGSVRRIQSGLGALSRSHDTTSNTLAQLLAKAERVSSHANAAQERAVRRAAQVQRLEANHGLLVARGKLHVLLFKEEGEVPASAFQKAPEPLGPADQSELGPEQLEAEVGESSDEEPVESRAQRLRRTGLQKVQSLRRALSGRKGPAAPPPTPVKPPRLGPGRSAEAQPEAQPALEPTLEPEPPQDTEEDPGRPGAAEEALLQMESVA
Described as above. To be noted: partners not purified.

“And” between values parts separate entries of the source, which are not always exact repeats. Identical values can stand only once.

Broadly, the stoichiometry N is the number of molecules, sites or subunits per partner or assembly. In the case of B1, the “stoichiometry N” value in data set [1] was approximately 50 monomers.

B2: cavin3-Cherry-myc (cell-free) (natural protein, UniProt Q969G5 1-261, looked up)
chain: MRESALERGPVPEAPAGGPVHAVTVVTLLEKLASMLETLRERQGGLARRQGGLAGSVRRIQSGLGALSRSHDTTSNTLAQLLAKAERVSSHANAAQERAVRRAAQVQRLEANHGLLVARGKLHVLLFKEEGEVPASAFQKAPEPLGPADQSELGPEQLEAEVGESSDEEPVESRAQRLRRTGLQKVQSLRRALSGRKGPAAPPPTPVKPPRLGPGRSAEAQPEAQPALEPTLEPEPPQDTEEDPGRPGAAEEALLQMESVA
notes: cavin3 / SRBC; ORF in a Gateway DNA template for cell-free expression; also called SRBC; cavin3-myc; source: Leishmania tarentolae cell-free system (LTE), in vitro translated, not purified; not shown: mCherry, C-terminal, kept; Myc, C-terminal, kept
With B2, the “stoichiometry N” value with cavin1-GFP (cell-free) was found to be 3 cavin1 per cavin3.

B3: cavin3-Cherry (natural protein, UniProt Q969G5 1-261, looked up)
chain: MRESALERGPVPEAPAGGPVHAVTVVTLLEKLASMLETLRERQGGLARRQGGLAGSVRRIQSGLGALSRSHDTTSNTLAQLLAKAERVSSHANAAQERAVRRAAQVQRLEANHGLLVARGKLHVLLFKEEGEVPASAFQKAPEPLGPADQSELGPEQLEAEVGESSDEEPVESRAQRLRRTGLQKVQSLRRALSGRKGPAAPPPTPVKPPRLGPGRSAEAQPEAQPALEPTLEPEPPQDTEEDPGRPGAAEEALLQMESVA
notes: construct cloned as described in Hill et al. (2008); The only hint on species is the keyword 'human'; the cDNA may be of mouse (surmise); also called SRBC; C3-C; source: MCF-7 or MDCK cells, transfected (Lipofectamine 2000), in supernatant of mechanically lysed cells
In the case of B3, the “stoichiometry N” value in data set [1] was approximately 50 monomers.
In the case of B4, the “stoichiometry N” value in data set [1] is 50 ± 5 proteins per complex; in data set [2] it was 40 to 50 cavin1 per caveola. The “brightness of CAV1-GFP over cavin1-GFP” value with CAV1 untagged came to 3.5 fold.

B5: cavin1-Cherry (natural protein, UniProt Q6NZI2 1-390, looked up)
chain: MEDPTLYIVERPLPGYPDAEAPEPSSAGAQAAEEPSGAGSEELIKSDQVNGVLVLSLLDKIIGAVDQIQLTQAQLEERQAEMEGAVQSIQGELSKLGKAHATTSNTVSKLLEKVRKVSVNVKTVRGSLERQAGQIKKLEVNEAELLRRRNFKVMIYQDEVKLPAKLSISKSLKESEALPEKEGEELGEGERPEEDAAALELSSDEAVEVEEVIEESRAERIKRSGLRRVDDFKKAFSKEKMEKTKVRTRENLEKTRLKTKENLEKTRHTLEKRMNKLGTRLVPAERREKLKTSRDKLRKSFTPDHVVYARSKTAVYKVPPFTFHVKKIREGQVEVLKATEMVEVGADDDEGGAERGEAGDLRRGSSPDVHALLEITEESDAVLVDKSDSD
notes: cavin1 / polymerase transcript release factor (PTRF); construct cloned as described in Hill et al. (2008); The only hint on species is the keyword 'human'; the cDNA may be of mouse (surmise); also called PTRF; source: MCF-7 or MDCK cells, transfected (Lipofectamine 2000), in supernatant of mechanically lysed cells
In the case of B5, the “stoichiometry N” value in the data set with CAV1-GFP is 3 CAV1 per cavin1 and 4 CAV1 per cavin1; with cavin1-GFP, 9 cavin1 proteins per oligomer and 8 cavin1 proteins per oligomer to 10 cavin1 proteins per oligomer (2×); in the data set with cavin2-GFP, 2 cavin1 per cavin2; with cavin3-GFP it was approximately 2 cavin1 per cavin3.
